The target in data set [1] is TcaR quadruple mutant (Staphylococcus epidermidis, UniProt Q5HLN6 1-151, R71A;K73A;R93A;K95A). The data set is described as follows: EMSA; EMSA: 20 mM Tris-HCl pH 8.0, 150 mM KCl, 0.1 mM MgCl2, 0.05 mM EDTA, 12.5% glycerol, 0.1 mM DTT, 1 mg/ml BSA, room temperature (30 C for viral ssDNA); SPR: 50 mM Tris, 150 mM NaCl, pH 7.5, 25 C. As to conditions: protein: recombinant, chain copies: 2.

Data set [2] concerns the target T1, TcaR (Staphylococcus epidermidis, UniProt Q5HLN6 1-151). The experiment in a line: EMSA; weaker than the single strands; EMSA: 20 mM Tris-HCl pH 8.0, 150 mM KCl, 0.1 mM MgCl2, 0.05 mM EDTA, 12.5% glycerol, 0.1 mM DTT, 1 mg/ml BSA, room temperature (30 C for viral ssDNA); SPR: 50 mM Tris, 150 mM NaCl, pH 7.5, 25 C. As to conditions: protein: recombinant; chain copies: 2. (In general: Mobility shift assays separate free from complexed probe on a gel.)

For data set [3], the target named is T1, TcaR. The data set is described as follows: EMSA; EMSA: 20 mM Tris-HCl pH 8.0, 150 mM KCl, 0.1 mM MgCl2, 0.05 mM EDTA, 12.5% glycerol, 0.1 mM DTT, 1 mg/ml BSA, room temperature (30 C for viral ssDNA); SPR: 50 mM Tris, 150 mM NaCl, pH 7.5, 25 C. The conditions noted are these: protein: recombinant, chain copies: 2.
Data set [4] concerns the target T1, TcaR. The data set is described as follows: SPR; EMSA: 20 mM Tris-HCl pH 8.0, 150 mM KCl, 0.1 mM MgCl2, 0.05 mM EDTA, 12.5% glycerol, 0.1 mM DTT, 1 mg/ml BSA, room temperature (30 C for viral ssDNA); SPR: 50 mM Tris, 150 mM NaCl, pH 7.5, 25 C. As to conditions: protein: recombinant; chain copies: 2; label: 5' biotin (SPR). (In general: SPR reads the build-up and loss of mass on a sensor chip optically.)

Data set [5] addresses T1, TcaR. The data set is described as follows: EMSA; similar to GC33; small and large complexes; EMSA: 20 mM Tris-HCl pH 8.0, 150 mM KCl, 0.1 mM MgCl2, 0.05 mM EDTA, 12.5% glycerol, 0.1 mM DTT, 1 mg/ml BSA, room temperature (30 C for viral ssDNA); SPR: 50 mM Tris, 150 mM NaCl, pH 7.5, 25 C. As to conditions: protein: recombinant; chain copies: 2.
The target of data set [6] is T1, TcaR. The data set is described as follows: SPR; shown as '-' in table; EMSA: 20 mM Tris-HCl pH 8.0, 150 mM KCl, 0.1 mM MgCl2, 0.05 mM EDTA, 12.5% glycerol, 0.1 mM DTT, 1 mg/ml BSA, room temperature (30 C for viral ssDNA); SPR: 50 mM Tris, 150 mM NaCl, pH 7.5, 25 C. As to conditions: protein: recombinant; chain copies: 2.
Data set [7] addresses T1, TcaR. The data set is described as follows: EMSA; no significant interaction; 1 uM DNA; EMSA: 20 mM Tris-HCl pH 8.0, 150 mM KCl, 0.1 mM MgCl2, 0.05 mM EDTA, 12.5% glycerol, 0.1 mM DTT, 1 mg/ml BSA, room temperature (30 C for viral ssDNA); SPR: 50 mM Tris, 150 mM NaCl, pH 7.5, 25 C. As to conditions: protein: recombinant, chain copies: 2.
For data set [8], the target named is T1, TcaR. The data set is described as follows: EMSA; similar to GC33; small complex; EMSA: 20 mM Tris-HCl pH 8.0, 150 mM KCl, 0.1 mM MgCl2, 0.05 mM EDTA, 12.5% glycerol, 0.1 mM DTT, 1 mg/ml BSA, room temperature (30 C for viral ssDNA); SPR: 50 mM Tris, 150 mM NaCl, pH 7.5, 25 C. As to conditions: protein: recombinant; chain copies: 2.

B1: IcaR DNA1 (dsDNA)
DNA 1: TATTGCAAATTGAAATACTTTCGATTAGCATAT
DNA 2: ATATGCTAATCGAAAGTATTTCAATTTGCAATA
On to B1, for which the binding result in data set [1] was “no binding”; in data set [2] it was “binds”.

Take ATATGCTAATCGAAAGTATTTCAATTTGCAATA (ssDNA) [IcaR DNA1A]: the binding result in data set [3] is “binds”.

Consider TATTGCAAATTGAAATACTTTCGATTAGCATAT (ssDNA) [IcaR DNA1S], for which, in data set [3], the binding result is “binds”.

Take GATTATTTATTTTCAAATTATTTATTTTCAAGG (ssDNA) [AT33]: the binding result in data set [3] (label: 5' biotin (SPR only)) is recorded as “binds”.

As to GTTGGCGT (ssDNA) [GC8], in data set [4], the binding result is recorded as “no binding”.

Take GCGTTGGCGTCGTGAGCGTTGGCGTCGTG (ssDNA) [GC29]: in data set [5], the binding result is “binds”.

B2: Control dsDNA (dsDNA)
DNA 1: CCCCCGGGTTCGATGGGCTCAAGGCGGGCATGAAGTACCCCGTACTTCATGCCCGCCTTGAGCCCATCGAACCC
DNA 2: GGGTTCGATGGGCTCAAGGCGGGCATGAAGTACGGGGTACTTCATGCCCGCCTTGAGCCCATCGAACCCGGGGG
B2: in data set [6], the binding result was “no binding”.

As for GATTATTTATTTTCAAG (ssDNA) [AT17], the binding result in data set [7] is “no binding”.

On to GAGCGTTGGCGTCGTGC (ssDNA) [GC17], for which, in data set [7] (label: 5' biotin (SPR only)), the binding result is listed as “no binding”.

Regarding GAGCGTTGGCGTCGTGAGCGTTGGCGTCGTGCG (ssDNA) [GC33], the figures for the binding result in data set [3] (label: 5' biotin (SPR only)) and in data set [1] (label: 5' biotin (SPR only)) were “binds” and “no binding”, respectively.

Turning to GTTGGCGTCGTGAGCGTTGGCGTCG (ssDNA) [GC25], in data set [8], the binding result is “binds”.

The values are drawn from publication PMC3448645, “Functional Studies of ssDNA Binding Ability of MarR Family Protein TcaR from Staphylococcus epidermidis”.
